Two molecules from paper PMC6763431, “Methionine in a protein hydrophobic core drives tight interactions required for assembly of spider silk” (Nature Communications, 2019) can be followed below.

Data set [1] deals with the molecule itself. The experiment in a line: SEC; high-resolution SEC with Trp fluorescence detection, Superdex-75 Increase 10/300, 0.8 ml/min, 20 mM MES, pH 6.0, ionic strength 20 mM (KCl); elution volume against protein concentration fitted to a monomer/dimer equilibrium; dimer to monomers. For orientation: Size exclusion chromatography separates by hydrodynamic size, large species first.

Data set [2] concerns the target T1, AttoOxa11-modified L6-NTD mutant Q50C (Euprosthenops australis, AttoOxa11 (maleimide derivative) on the thiol of the engineered cysteine at position 50).
T1 chain: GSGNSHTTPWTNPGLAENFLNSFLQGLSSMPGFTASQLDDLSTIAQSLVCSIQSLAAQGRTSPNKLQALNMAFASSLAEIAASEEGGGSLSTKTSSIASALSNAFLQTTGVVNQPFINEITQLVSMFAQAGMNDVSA
Briefly: MST; 40 nM AttoOxa11-modified L6-NTD Q50C with increasing concentrations of unlabelled L6-NTD, standard untreated capillaries, 50% heating power; bimolecular binding isotherm (pseudo-dimerization). The note with it: both partners purified.

Data set [3] addresses T2, wild-type N-terminal domain of major ampullate spidroin 1 (MaSp1) from Euprosthenops australis (Euprosthenops australis), Q05H60.
T2 chain: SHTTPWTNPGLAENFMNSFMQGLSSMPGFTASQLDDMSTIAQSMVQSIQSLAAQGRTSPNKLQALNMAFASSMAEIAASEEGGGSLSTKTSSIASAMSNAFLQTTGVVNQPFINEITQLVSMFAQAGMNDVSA
The experiment in a line: SEC-MALS; 20 mM MES, pH 6.0, ionic strength 60 mM (KCl), dimer conditions; µM sample concentration; dimer to monomers. The conditions noted are these: remark: other sources report otherwise.

B1: L6-NTD (MaSp1 NTD from E. australis with all six core Met mutated to Leu) (domain or fragment)
chain: GSGNSHTTPWTNPGLAENFLNSFLQGLSSMPGFTASQLDDLSTIAQSLVQSIQSLAAQGRTSPNKLQALNMAFASSLAEIAASEEGGGSLSTKTSSIASALSNAFLQTTGVVNQPFINEITQLVSMFAQAGMNDVSA
With B1, the Kd turned out to be 1100 nM in data set [1] and 3600 ± 1800 nM in data set [2].

B2: wild-type N-terminal domain of major ampullate spidroin 1 (MaSp1) from Euprosthenops australis, Q05H60 24-156 (domain or fragment)
chain: SHTTPWTNPGLAENFMNSFMQGLSSMPGFTASQLDDMSTIAQSMVQSIQSLAAQGRTSPNKLQALNMAFASSMAEIAASEEGGGSLSTKTSSIASAMSNAFLQTTGVVNQPFINEITQLVSMFAQAGMNDVSA
Molecule B2 came in with a stoichiometry N in data set [3] of 2.

One may read the Kd as the constant that tells how readily two partners part at equilibrium. The low end stands for tighter binding, the high end for weaker binding. The stoichiometry N is the number of molecules, sites or subunits per partner or assembly.
